Columns and labels:
[1] = target: feline FcRn complex (FcRn-α subunit and β-microglobulin) (feline); assay: SPR (Biacore), FcRn on SA chip, pH 6
[2] = target: feline FcRn complex (FcRn-α subunit and β-microglobulin) (feline); assay: SPR (Biacore), FcRn on SA chip, pH 7.4
[3] = target: feline FcRn complex (FcRn-α subunit and β-microglobulin), biotin labeled (feline); assay: SPR, pH 6
[4] = target: feline FcRn complex (FcRn-α subunit and β-microglobulin), biotin labeled (feline); assay: SPR, pH 7.4

| Molecule | Kd [1] | Kd [2] | Kd [3] | Kd [4] |
| --- | --- | --- | --- | --- |
| feline IgG1a mutant ID No. 278: S252R, S434H, Q311W (antibody) | 5.45 nM | 5910 nM | – | – |
| feline IgG1a mutant ID No. 366: S252Y, S434R, E430I (antibody) | 0.322 nM | 26.1 nM | – | – |
| feline IgG1a mutant ID No. 260: S252Y, S254T, T256E (antibody) | 13.2 nM | 66.5 nM | – | – |
| feline IgG1a mutant ID No. 357: S252Y, S434R, A431K (antibody) | 0.769 nM | 25.9 nM | – | – |
| feline IgG1a mutant ID No. 365: S252Y, S434R, E430I (antibody) | 0.296 nM | 28.9 nM | – | – |
| feline IgG1a mutant ID No. 358: S252Y, S434R, A431K (antibody) | 0.748 nM | 28.3 nM | – | – |
| feline IgG1a mutant ID No. 246: S252Y, S428M, S434W (antibody, part only; not given: Variable domains, not shown: another chain or arm of the molecule) constant: ASTTAPSVFPLAPSCGTTSGATVALACLVLGYFPEPVTVSWNSGALTSGVHTFPAVLQASGLYSLSSMVTVPSSRWLSDTFTCNVAHPPSNTKVDKTVRKTDHPPGPKPCDCPKCPPPEMLGGPSIFIFPPKPKDTLYISRTPEVTCLVVDLGPDDSDVQITWFVDNTQVYTAKTSPREEQFNSTYRVVSVLPILHQDWLKGKEFKCKVNSKSLPSPIERTISKAKGQPHEPQVYVLPPAQEELSRNKVSVTCLIKSFHPPDIAVEWEITGQPEPENNYRTTPPQLDSDGTYFVYSKLSVDRSHWQRGNTYTCSVMHEALHWHHTQKSLTQSPGK | 0.0406 nM | 7.91 nM | – | – |
| feline IgG1a mutant ID No. 350: S252Y, S428M, S434F, Q311M (antibody, part only; not given: Variable domains, not shown: another chain or arm of the molecule) constant: ASTTAPSVFPLAPSCGTTSGATVALACLVLGYFPEPVTVSWNSGALTSGVHTFPAVLQASGLYSLSSMVTVPSSRWLSDTFTCNVAHPPSNTKVDKTVRKTDHPPGPKPCDCPKCPPPEMLGGPSIFIFPPKPKDTLYISRTPEVTCLVVDLGPDDSDVQITWFVDNTQVYTAKTSPREEQFNSTYRVVSVLPILHMDWLKGKEFKCKVNSKSLPSPIERTISKAKGQPHEPQVYVLPPAQEELSRNKVSVTCLIKSFHPPDIAVEWEITGQPEPENNYRTTPPQLDSDGTYFVYSKLSVDRSHWQRGNTYTCSVMHEALHFHHTQKSLTQSPGK | – | 4.89 nM | – | – |
| feline IgG1a mutant ID No. 353: S252Y, S428M, S434F, S254V (antibody, part only; not given: Variable domains, not shown: another chain or arm of the molecule) constant: ASTTAPSVFPLAPSCGTTSGATVALACLVLGYFPEPVTVSWNSGALTSGVHTFPAVLQASGLYSLSSMVTVPSSRWLSDTFTCNVAHPPSNTKVDKTVRKTDHPPGPKPCDCPKCPPPEMLGGPSIFIFPPKPKDTLYIVRTPEVTCLVVDLGPDDSDVQITWFVDNTQVYTAKTSPREEQFNSTYRVVSVLPILHQDWLKGKEFKCKVNSKSLPSPIERTISKAKGQPHEPQVYVLPPAQEELSRNKVSVTCLIKSFHPPDIAVEWEITGQPEPENNYRTTPPQLDSDGTYFVYSKLSVDRSHWQRGNTYTCSVMHEALHFHHTQKSLTQSPGK | – | 6.68 nM | – | – |
| feline IgG1a mutant ID No. 251: S428M, Q311Y (antibody, part only; not given: Variable domains, not shown: another chain or arm of the molecule) constant: ASTTAPSVFPLAPSCGTTSGATVALACLVLGYFPEPVTVSWNSGALTSGVHTFPAVLQASGLYSLSSMVTVPSSRWLSDTFTCNVAHPPSNTKVDKTVRKTDHPPGPKPCDCPKCPPPEMLGGPSIFIFPPKPKDTLSISRTPEVTCLVVDLGPDDSDVQITWFVDNTQVYTAKTSPREEQFNSTYRVVSVLPILHYDWLKGKEFKCKVNSKSLPSPIERTISKAKGQPHEPQVYVLPPAQEELSRNKVSVTCLIKSFHPPDIAVEWEITGQPEPENNYRTTPPQLDSDGTYFVYSKLSVDRSHWQRGNTYTCSVMHEALHSHHTQKSLTQSPGK | 5.83 nM | 20.3 nM | – | – |
| feline IgG1a mutant ID No. 247: S252Y, S428M, S434Y (antibody, part only; not given: Variable domains, not shown: another chain or arm of the molecule) constant: ASTTAPSVFPLAPSCGTTSGATVALACLVLGYFPEPVTVSWNSGALTSGVHTFPAVLQASGLYSLSSMVTVPSSRWLSDTFTCNVAHPPSNTKVDKTVRKTDHPPGPKPCDCPKCPPPEMLGGPSIFIFPPKPKDTLYISRTPEVTCLVVDLGPDDSDVQITWFVDNTQVYTAKTSPREEQFNSTYRVVSVLPILHQDWLKGKEFKCKVNSKSLPSPIERTISKAKGQPHEPQVYVLPPAQEELSRNKVSVTCLIKSFHPPDIAVEWEITGQPEPENNYRTTPPQLDSDGTYFVYSKLSVDRSHWQRGNTYTCSVMHEALHYHHTQKSLTQSPGK | 0.0902 nM | 7.65 nM | – | – |
| feline IgG1a mutant ID No. 250: S428M, Q311W (antibody, part only; not given: Variable domains, not shown: another chain or arm of the molecule) constant: ASTTAPSVFPLAPSCGTTSGATVALACLVLGYFPEPVTVSWNSGALTSGVHTFPAVLQASGLYSLSSMVTVPSSRWLSDTFTCNVAHPPSNTKVDKTVRKTDHPPGPKPCDCPKCPPPEMLGGPSIFIFPPKPKDTLSISRTPEVTCLVVDLGPDDSDVQITWFVDNTQVYTAKTSPREEQFNSTYRVVSVLPILHWDWLKGKEFKCKVNSKSLPSPIERTISKAKGQPHEPQVYVLPPAQEELSRNKVSVTCLIKSFHPPDIAVEWEITGQPEPENNYRTTPPQLDSDGTYFVYSKLSVDRSHWQRGNTYTCSVMHEALHSHHTQKSLTQSPGK | 5.56 nM | 33.2 nM | – | – |
| feline IgG1a mutant ID No. 323: S428Y, D312P, S434Y, D399M, D401R, T403R (antibody, part only; not given: Variable domains, not shown: another chain or arm of the molecule) constant: ASTTAPSVFPLAPSCGTTSGATVALACLVLGYFPEPVTVSWNSGALTSGVHTFPAVLQASGLYSLSSMVTVPSSRWLSDTFTCNVAHPPSNTKVDKTVRKTDHPPGPKPCDCPKCPPPEMLGGPSIFIFPPKPKDTLSISRTPEVTCLVVDLGPDDSDVQITWFVDNTQVYTAKTSPREEQFNSTYRVVSVLPILHQPWLKGKEFKCKVNSKSLPSPIERTISKAKGQPHEPQVYVLPPAQEELSRNKVSVTCLIKSFHPPDIAVEWEITGQPEPENNYRTTPPQLMSRGRYFVYSKLSVDRSHWQRGNTYTCSVYHEALHYHHTQKSLTQSPGK | – | 1300 nM | – | – |
| feline IgG1a S434F (antibody, part only; not given: Variable domains, not shown: another chain or arm of the molecule) constant: ASTTAPSVFPLAPSCGTTSGATVALACLVLGYFPEPVTVSWNSGALTSGVHTFPAVLQASGLYSLSSMVTVPSSRWLSDTFTCNVAHPPSNTKVDKTVRKTDHPPGPKPCDCPKCPPPEMLGGPSIFIFPPKPKDTLSISRTPEVTCLVVDLGPDDSDVQITWFVDNTQVYTAKTSPREEQFNSTYRVVSVLPILHQDWLKGKEFKCKVNSKSLPSPIERTISKAKGQPHEPQVYVLPPAQEELSRNKVSVTCLIKSFHPPDIAVEWEITGQPEPENNYRTTPPQLDSDGTYFVYSKLSVDRSHWQRGNTYTCSVSHEALHFHHTQKSLTQSPGK | – | – | 0.745 nM | 21 nM |
| feline IgG1a mutant ID No. 249: S428M, L314K (antibody, part only; not given: variable domains and light chain, not shown: another chain or arm of the molecule; small tags and cut ends) constant: ASTTAPSVFPLAPSCGTTSGATVALACLVLGYFPEPVTVSWNSGALTSGVHTFPAVLQASGLYSLSSMVTVPSSRWLSDTFTCNVAHPPSNTKVDKTVRKTDHPPGPKPCDCPKCPPPEMLGGPSIFIFPPKPKDTLSISRTPEVTCLVVDLGPDDSDVQITWFVDNTQVYTAKTSPREEQFNSTYRVVSVLPILHQDWKKGKEFKCKVNSKSLPSPIERTISKAKGQPHEPQVYVLPPAQEELSRNKVSVTCLIKSFHPPDIAVEWEITGQPEPENNYRTTPPQLDSDGTYFVYSKLSVDRSHWQRGNTYTCSVMHEALHSHHTQKSLTQSPGK | 0.978 nM | 19300 nM | – | – |
| feline IgG1a mutant ID No. 248: S428M, D312P (antibody, part only; not given: Variable domains, not shown: another chain or arm of the molecule) constant: ASTTAPSVFPLAPSCGTTSGATVALACLVLGYFPEPVTVSWNSGALTSGVHTFPAVLQASGLYSLSSMVTVPSSRWLSDTFTCNVAHPPSNTKVDKTVRKTDHPPGPKPCDCPKCPPPEMLGGPSIFIFPPKPKDTLSISRTPEVTCLVVDLGPDDSDVQITWFVDNTQVYTAKTSPREEQFNSTYRVVSVLPILHQPWLKGKEFKCKVNSKSLPSPIERTISKAKGQPHEPQVYVLPPAQEELSRNKVSVTCLIKSFHPPDIAVEWEITGQPEPENNYRTTPPQLDSDGTYFVYSKLSVDRSHWQRGNTYTCSVMHEALHSHHTQKSLTQSPGK | 5.7 nM | 23.7 nM | – | – |

Reference: patent US20240400708A1
